T1: human MerTK expressed on cells (human, UniProt Q12866 21-999)
T1 construct: whole, on cells; also called CHO-K1-hMerTK; CHO-K1-MerTK
T1 sequence (looked up): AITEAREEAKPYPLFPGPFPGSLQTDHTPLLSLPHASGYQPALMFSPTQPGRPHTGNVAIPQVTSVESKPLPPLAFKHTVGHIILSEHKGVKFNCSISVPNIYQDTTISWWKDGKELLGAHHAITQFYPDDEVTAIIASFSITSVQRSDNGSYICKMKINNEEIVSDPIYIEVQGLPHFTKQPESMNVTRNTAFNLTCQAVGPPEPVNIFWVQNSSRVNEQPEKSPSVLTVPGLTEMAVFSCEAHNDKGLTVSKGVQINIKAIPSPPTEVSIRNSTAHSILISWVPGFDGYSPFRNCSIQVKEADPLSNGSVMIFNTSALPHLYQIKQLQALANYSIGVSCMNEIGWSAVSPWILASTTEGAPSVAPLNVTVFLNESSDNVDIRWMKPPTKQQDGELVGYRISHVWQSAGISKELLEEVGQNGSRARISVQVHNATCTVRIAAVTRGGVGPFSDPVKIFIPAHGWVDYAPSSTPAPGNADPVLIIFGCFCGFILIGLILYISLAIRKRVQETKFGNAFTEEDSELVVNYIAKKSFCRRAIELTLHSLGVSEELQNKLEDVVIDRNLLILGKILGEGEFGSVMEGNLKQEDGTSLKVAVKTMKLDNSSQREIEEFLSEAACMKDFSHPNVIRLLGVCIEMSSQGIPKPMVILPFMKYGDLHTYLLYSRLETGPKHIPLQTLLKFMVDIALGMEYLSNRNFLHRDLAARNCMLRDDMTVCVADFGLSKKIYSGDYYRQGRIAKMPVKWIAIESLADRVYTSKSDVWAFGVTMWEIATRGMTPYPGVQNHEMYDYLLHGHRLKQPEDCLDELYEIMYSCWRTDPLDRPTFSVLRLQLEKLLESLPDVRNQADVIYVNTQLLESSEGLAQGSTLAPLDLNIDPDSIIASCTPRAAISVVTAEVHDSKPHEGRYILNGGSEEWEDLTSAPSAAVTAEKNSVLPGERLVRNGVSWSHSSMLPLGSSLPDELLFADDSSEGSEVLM

T2: human MerTK-his protein (human, UniProt Q12866 21-505)
T2 construct: extracellular domain; also called hMerTK-His; human MerTK protein
T2 sequence (looked up): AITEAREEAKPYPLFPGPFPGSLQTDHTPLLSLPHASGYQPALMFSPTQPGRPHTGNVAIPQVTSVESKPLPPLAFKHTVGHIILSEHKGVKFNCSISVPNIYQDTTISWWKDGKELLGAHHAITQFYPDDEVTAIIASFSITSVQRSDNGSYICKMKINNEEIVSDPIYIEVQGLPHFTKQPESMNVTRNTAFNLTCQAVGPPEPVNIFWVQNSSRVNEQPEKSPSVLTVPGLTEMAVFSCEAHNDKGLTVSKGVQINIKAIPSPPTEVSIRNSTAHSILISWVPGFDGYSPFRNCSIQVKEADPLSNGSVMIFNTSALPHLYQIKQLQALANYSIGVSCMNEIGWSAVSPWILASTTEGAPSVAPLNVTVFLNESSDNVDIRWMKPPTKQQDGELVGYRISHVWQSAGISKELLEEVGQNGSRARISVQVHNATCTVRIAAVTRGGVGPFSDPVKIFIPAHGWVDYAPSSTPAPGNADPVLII


What was measured:
[1] = molecular target: T1, human MerTK expressed on cells; test: FACS on CHO-K1 cells overexpressing human MerTK, MFI (AF488)
[2] = molecular target: T1, human MerTK expressed on cells; test: FACS on SK-MEL-5 cells expressing human MerTK, geometric mean
Method: To evaluate the binding properties on MerTK expressed on cells, the chimeric monoclonal antibodies were analyzed for their binding to human melanoma cell line SK-MEL-5 expressing MerTK by FACS analysis. Briefly, SK-MEL-5 cells were firstly incubated with 5-fold serially diluted chimeric mAbs starting at 20 nM at 4° C. for 30 mins. After washing by FACS buffer, the PE conjugated anti-human IgG secondary antibody was incubated with the cell-antibody complex in the wells at 4° C. for 30 mins to detect the antibodies those bound to the cells. The MFI of PE was evaluated by QuantAnalyzer 16.

human MerTK-his protein [3] = molecular target: T2, human MerTK-his protein; test: SPR Biacore T200, antibody captured on Protein A chip
Method: The binding affinity of the MerTK chimeric antibodies to human MerTK-his protein was tested with Biacroe™ T200 using a capture method. Briefly, the antibodies were captured with a Pro-A chip. […] The antigen was allowed to dissociate for 420-800 s. Data analysis was carried out using Biacore™ T200 evaluation software.

human MerTK-his protein [4] = molecular target: T2, human MerTK-his protein; test: SPR Biacore 8K, antibody captured on Protein A chip, 50 nM antigen
Method: To explore whether the humanized antibodies could maintain their binding kinetics, affinity ranking were performed with Biacore™. The antibodies were captured with a Protein A chips. Human MerTK-his protein at 50 nM was injected over captured antibodies for 180 s at a flow rate of 30 μL/min. The antigen was allowed to dissociate for 600 s. The experiment was carried out on a Biacore™ 8K. Data analysis was carried out using Biacore™ 8K evaluation software.

human MerTK-his protein [5] = molecular target: T2, human MerTK-his protein; test: ELISA, plate coated with human MerTK-his, OD 450nm
[6] = molecular target: T1, human MerTK expressed on cells; test: FACS on CHO-K1 cells overexpressing human MerTK, MFI (AF488); remark: listed apart in the source

EC50 [1] [nM]	EC50 [2] [nM]	Top [2] [Geometric Mean]	Kd (human MerTK-his protein [3]) [nM]	koff (human MerTK-his protein [3]) [s⁻¹]	kon (human MerTK-his protein [3]) [M⁻¹ s⁻¹]	Kd (human MerTK-his protein [4]) [nM]	koff (human MerTK-his protein [4]) [s⁻¹]	kon (human MerTK-his protein [4]) [M⁻¹ s⁻¹]	EC50 (human MerTK-his protein [5]) [nM]	EC50 [6] [nM]	Binder
0.23	0.048	7750	1.22	0.000232	191000	0.392	7.78e-05	199000	0.036		265F11B5 chimeric monoclonal antibody (antibody, V domains shown) VH: QVQLQQSGPELVKPGASVRLSCKASGYTFTTYDINWVKQRPGLGLEWIGWIYPRDGYTKYNEKFKGRATLAVDTSSSTAYMELHSLTSEDSAVYFCTRGYYDNLYYFDYWGQGTTLTVSS VL: EIVLTQSPTTVAASPGEKITITCSASSIISSNYFHWYQQRPGFSPKLLIYRTSNLASGVPARFSGSGSGTSYSLTIGTMEAEDVATYYCQQGRSVPLTFGAGTKLELK
			11.9	0.000782	65500	34.9	0.000785	22500	0.095	1	254B4D9 chimeric monoclonal antibody (antibody, V domains shown) VH: QIQLVQSGPELKKPGETVKISCKASGYTFTAYGMSWVKQAPGKGLQWMGWINTYSGVPTYTDDFKGRFAFSLEASASTAFLQINNLKNEDTSTYFCARRAAVVAKYWYFDVWGTGTTVTVSS VL: DIQMTQSPSSLFASLGGKVIITCKSSQDINKRISWYQHKPGKGPRLLIHSTSSLQPGIPLRFSGSGSGRDYSFSISNLEPEDIATYFCLQYDNLLTFGAGTKLELK

From patent US20260028422A1 (CONCEPT TO MEDICINE BIOTECH, published 2026)
